Test results: the supplement of paper PMC9170038

System: MS2 coat protein
Assay: apparent KD of MS2 coat protein; designed switch direction (-1 OFF switch, 1 ON switch): -1; higher = weaker reporter binding
Procedure, shortened: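 Three titration conditions were used: no input, 200 uM small-molecule ligand, and an oligonucleotide input. In each, SNAP-549-labelled MS2 coat protein was raised from 0.7 or 1.5 nM, doubling, to 3 µM over designed RNA switches transcribed on Illumina chips by stalled E. coli RNA polymerase. Curve fits of normalised cluster fluorescence gave values whose per-design median over clusters is the apparent KD.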

[1] = Eterna round: R95, input ligand: microRNA oligo, concentration not stated
[2] = Eterna round: R95, input ligand: FMN 200 uM
[3] = Eterna round: R95, input ligand: none
[4] = input ligand: microRNA oligo, concentration not stated

Sequence	apparent KD of MS2 coat protein (input ligand: FMN 200 uM) [nM]	apparent KD of MS2 coat protein (input ligand: none) [nM]	apparent KD of MS2 coat protein [1] [nM]	apparent KD of MS2 coat protein [2] [nM]	apparent KD of MS2 coat protein [3] [nM]	apparent KD of MS2 coat protein [4] [nM]
CCGCGUGUCGGACUGGGUUACAUGAGGAUCACCCAUGUUCGGUAAACUAAGCGUUUGCUCGUCUAAACCAUUCUCGA [Eternabot (Original) Solution 24] (Eterna round: R97, puzzle: Sensor, turn-off variant 1)	175	205	–	–	–	–
CCGGAAAUACAGGAUAUAGGAGUAAAUAUACUCCUAGAAGGGUAUACAUGAGGAUCACCCAUGUGUCCUACCGG [Fiskers Ex 6 - 67] (puzzle: Exclusion 6)	–	–	23.4	–	–	–
CCGGAAAUGAAGGAUAUAGGUGUCGAUAGACACCUAGAAGGUCAUACAUGAGGAUCACCCAUGUGUCCUACCGG [Fiskers Ex 6 - 7] (puzzle: Exclusion 6)	–	–	13.9	–	–	–
CCGGAAAUGCAGGAUAUCGUAUCGGAUACGAUACGAGAAGGGUAUACAUGAGGAUCACCCAUGUGUCCUGCCGG [Fiskers Ex 6 - 54] (puzzle: Exclusion 6)	–	–	39.8	–	–	–
CCGGAUAUGCAGGAUAUCGUAUCGGAGACGAUACGAGAAGGGUAUACAUGAGGAUCACCCAUGUGCCUUACCGG [Mat - Exclusion 6 - Eli Mod - D82] (puzzle: Exclusion 6)	–	–	19	23.3	20.7	–
CCGGUUGGCGCAGGAUAUACAUGAGGAUCACCCAUGUUCAUGAGGAUCACCUAUGAGUUUUUGUUGUAGAAGGGUGGCCCGGCC (Eterna round: R96, puzzle: Exclusion NG 2)	53.1	52.9	–	–	–	39.1
CCGUGCACGCUGCGGUCCUACAUGAGGAUCACCCAUGUGGUCUGGUGGCGUGGGUCGCCGGACUUGGCUCGUCUUGU [salish99_S_TOV1_R5_020] (Eterna round: R97, puzzle: Sensor, turn-off variant 1)	19.7	20.5	–	–	–	–
CCGUUCCGUGUAGGAUAUUGGCCUACCACGGGCCGAGAAGGACAUGAGGAUCACCCAUGUAUGCUAUUAUCGCGCGUGGCGCCC [Design 99] (Eterna round: R96, puzzle: Exclusion NG 1)	24	21.8	–	–	–	15.4
CCUAGUUGGUAAGGAUAUCCUACACUGUUCUGACCCGGGCAAGCUACAUGAGGAUCACCCAUGUGGGAGAAGGUGCGUCAACGC [Design 13] (Eterna round: R96, puzzle: Exclusion NG 2)	30.8	31.2	–	–	–	22.2
CCUCAACAUGAGGAUCACCCAUGUCAGGAUAUGCGAAUUUCAUCAAAAGAUGAAAUUUGCAGAAGGGACUAAGC [Omei Ex1 A33] (Eterna round: R97, puzzle: Exclusion 1)	303	133	–	–	–	–
CCUCAGAUGUAGGAUAUCGCCCAGACAUUGCGGCGAGAAGGACAAACAUGAGGAUCACCCAUGUUAGUUUAGCA [Eternabot (L2) Solution 92] (Eterna round: R97, puzzle: Exclusion 6)	257	32.3	–	–	–	–
CCUCCACAUGAGGAUCACCCAUGUCAGGAUAUCGUGUGCGCGUUUUCGGUCUUUCGCGCGAGAAGGGACGUCUG (puzzle: Exclusion 1)	–	–	24	–	–	–
CCUCCACAUGAGGAUCACCCAUGUCAGGAUAUCGUGUGUGCGUUUUCGGUCUUUCGCGCGAGAAGGGACGUCUG (puzzle: Exclusion 1)	–	–	28.8	–	–	–
CCUCCGGCAGGAUAUGCAGGGAGGAUGUUGUGUUAUUGGUAACAUGAGGAUCACCCAUGUAGAAGGGCCAAUAC [Eternabot (L2) Solution 42] (Eterna round: R97, puzzle: Exclusion 2)	17.9	15	–	–	–	–
CCUCUACAUGAGGAUCACCCAUGUGAGGAUAUCAAAGCCAGAACGGAUCUCUGGCCCAUGAGAAGGUGCAUGGA [EX1 A.2] (Eterna round: R97, puzzle: Exclusion 1)	119	22.3	–	–	–	–
CCUCUACAUGAGGAUCACCCAUGUGAGGAUAUCCUGCGAGGAUCAAAAGAUCCUCGUGGGAGAAGGCAUAUGUA [Omei Ex1 A2] (Eterna round: R97, puzzle: Exclusion 1)	30.6	24.8	–	–	–	–
CCUGCACAUGAGGAUCACCCAUGUCAGGAUAUCUCGCCGCGAAGAGCAACACGGUAUUAGAGAAGGGACACGGG [Bimavees] (puzzle: Exclusion 1)	–	–	24.5	–	–	–
CCUGCGGACAAAGGAUAUUGCGGUGACCGGCUCGGCGUACCGAGCCUACAUGAGGAUCACCCAUGUAAGAAGGUUGUCGCUGGU [JL ViennaUCT Qudice mod 2] (Eterna round: R96, puzzle: Exclusion NG 2)	104	24.8	–	–	–	19.1

Sequence	apparent KD of MS2 coat protein (input ligand: FMN 200 uM) [nM]	apparent KD of MS2 coat protein (input ligand: none) [nM]	apparent KD of MS2 coat protein [1] [nM]	apparent KD of MS2 coat protein [2] [nM]	apparent KD of MS2 coat protein [3] [nM]	apparent KD of MS2 coat protein [4] [nM]
CCUUCUCCACAGGAUAUGCUCAUCUAAUGAUGAGCAGAAGGGUGGACAUGAGGAUCACCCAUGUUUAUCAAUGG [Omei Ex6 D2] (Eterna round: R97, puzzle: Exclusion 6)	589	428	–	–	–	–
CCUUGACAUGAGGAUCACCCAUGUGAGGAUAUGAUGCGAUCGUCGAAAGACGAUAGCAUCAGAAGGCACAUAUG [Fiskers Ex 1 - 8] (Eterna round: R96, puzzle: Exclusion 1)	91.8	24.4	–	–	–	12.8
CCUUGACAUGAGGAUCACCCAUGUGAGGAUAUGAUGCGAUCGUCGAAAGACGAUAGCAUCAGAAGGCACAUAUG [Fiskers Ex 1 - 8] (puzzle: Exclusion 1)	–	–	25.2	–	–	–
CCUUGUCUGAAGGAUAUCCGCCGAAAAGGCAAGGGAGAAGGUUAGACAUGAGGAUCACCCAUGUGCCGGUGUAA [EX6 A.3] (Eterna round: R97, puzzle: Exclusion 6)	44.2	25.5	–	–	–	–
CCUUUGUCAGGAUAUCAGAACGCGCUCGUAGGGAGCGCAAAUGAGAAGGGACAUGAGGAUCACCCAUGUAAAGA [Gequleon] (puzzle: Exclusion 4)	–	–	43.6	204	48.2	–
CGAAUGUCAGGAUAUCGUGCAUACAACGAAAGUUCUAUGUGCGAGAAGGGACAUGAGGAUCACCCAUGUCUUCG [Omei Ex4 A14] (Eterna round: R97, puzzle: Exclusion 4)	75.6	27.1	–	–	–	–
CGACUGGUAGGAUAUACAUGAGGAUCACCCAUGUACCUGACAUGAGAAUAAACCAUCGGUAGAAGGGCUAAGUC [Eternabot (L2) Solution 79] (Eterna round: R97, puzzle: Exclusion 3)	21.8	21.3	–	–	–	–
CGAGUGUAAGGAUAUUCGGCGCCAGAGAACGAUCUGACGUAGAAGAAGGUACAUGAGGAUCACCCAUGUGGUUA [Geinzarace] (puzzle: Exclusion 4)	–	–	102	41.6	204	–
CGAUAAAGCUGAGGAUAUGAGGAGAGAGAGAGAUCAGAAGGCAGACAUGAGGAUCACCCAUGUGAGUUCUCGAAAUUAAAUAUU [Prohibition 48 - Jieux - Exclusion NG 1] (Eterna round: R96, puzzle: Exclusion NG 1)	225	57.5	–	–	–	47
CGAUGAGGAGUGAGGAUAUCGUGUUCGAAAGAACGUGAGAAGGCACAUGAGGAUCACCCAUGUGAUACUUGUCG [Omei Ex4B A15] (Eterna round: R97, puzzle: Brourd's mod of Exclusion 4)	60.9	19.6	–	–	–	–
CGAUGCACGAGUCCACAUGAGGAUCACCCAUGUCGUGUUAGCGAGGAUAUCGGAGACACAUAGUAUGAGAAGGCGCGAACCUGA [Ex NG3 #21] (Eterna round: R96, puzzle: Exclusion NG 3)	16.4	13.4	–	–	–	11.2
CGCGAACAUGAGGAUCACCCAUGUGAGGAUAUCAUGCUUCGUAGUAAACUACGAAGUGUGAGAAGGCACAUGCG [Omei Ex1 D5] (Eterna round: R97, puzzle: Exclusion 1)	297	164	–	–	–	–
CGCGGAUGUAUAUGUCCGCACAUGAGGAUCACCCAUGUAAUAUAAGAUGAUAUUAAACAAAUUUUUGCUUGUCAGUU [Eternabot (L1) Solution 37] (Eterna round: R97, puzzle: Sensor, turn-off variant 1)	31	38.2	–	–	–	–
CGCUAUAGAGGAUAUACGAGAUCGAAAGAUCGGCGAUCCCUACAUGAGGAUCACCCAUGUAGAAGGCUAUAGCG [Mod 18 - Jieux - Exclusion 2] (Eterna round: R97, puzzle: Exclusion 2)	83.3	15.7	–	–	–	–
CGCUGGACAGGAUAUGUUCUUGGGCACUUGAGGAUCACCCAAGUCAUCGAGACAACAGGCACAGAAGGGUUUAUGG [salish99_ex5_r4_024] (Eterna round: R97, puzzle: Exclusion 5)	30.7	38.4	–	–	–	–
CGGAAGAUCGAAGGAUAUUGAGACAAACAGUGUCAAGAAGGUUGGGAGGACACAUGAGGAUCACCCAUGUCCAACUUUUGACGG [Eternabot solution 26] (Eterna round: R96, puzzle: Exclusion NG 1)	12.7	12.4	–	–	–	9.76
CGGCAAUCCUAGGAUAUGCUAGACGAGAGUCUAGCAGAAGGAGGAACAUGAGGAUCACCCAUGUGUCCUAGCCG [Mat - Exclusion 6 - Eli Mod - D15] (Eterna round: R97, puzzle: Exclusion 6)	22.1	15.6	–	–	–	–
